# Assay results taken from patent US20140308291A1 (INTEGRATED BIOTHERAPEUTICS, published 2014).
# T1: wild-type gamma hemolysin B subunit (HlgB) (Staphylococcus aureus, UniProt Q2FVK1 27-325)
# T1 construct: also called Gamma B; gamma hemolysin component B
# T1 sequence: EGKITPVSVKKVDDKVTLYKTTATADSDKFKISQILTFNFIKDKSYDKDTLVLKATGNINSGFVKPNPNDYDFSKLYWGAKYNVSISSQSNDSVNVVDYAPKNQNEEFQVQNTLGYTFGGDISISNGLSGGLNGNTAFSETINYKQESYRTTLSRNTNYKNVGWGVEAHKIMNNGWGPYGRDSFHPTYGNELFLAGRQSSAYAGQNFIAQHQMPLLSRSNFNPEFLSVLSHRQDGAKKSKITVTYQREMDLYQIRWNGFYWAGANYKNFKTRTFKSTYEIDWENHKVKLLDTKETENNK
# B1: LukS-PV triple mutant T28F/K97A/S209A (Mut9) (other)
# chain: HHHHHHDNNIENIGDGAEVVKRTEDTSSDKWGVFQNIQFDFVKDKKYNKDALILKMQGFINSKTTYYNYKNTDHIKAMRWPFQYNIGLKTNDPNVDLINYLPANKIDSVNVSQTLGYNIGGNFNSGPSTGGNGSFNYSKTISYNQQNYISEVEHQNSKSVQWGIKANSFITSLGKMSGHDPNLFVGYKPYSQNPRDYFVPDNELPPLVHSGFNPAFIATVSHEKGSGDTSEFEITYGRNMDVTHATRRTTHYGNSYLEGSRIHNAFVNRNYTVKYEVNWKTHEIKVKGHN
# Target: T1, wild-type gamma hemolysin B subunit …
# Assay: MPD-based oligomerization assay (40% MPD, 24 hours), SDS-PAGE without boiling
binder,measurement,value
B1,binding result,no binding
